Source: the RNAGym collection of RNA variant scans (doi:10.1093/molbev/msab373)

B1: Azoarcus group I ribozyme (parent)
chain: GUGCCUUGCGCCGGGAAACCACGCAAGGGAUGGUGUCAAAUUCGGCGAAACCUAAGCGCCCGCCCGGGCGUAUGGCAACGCCGAGCCAAGCUUCGGCGCCUGCGCCGAUGAAGGUGUAGAGACUAGACGGCACCCACCUAAGGCAAACGCUAUGGUGAAGGCAUAGUCCAGGGAGUGGCGAAAGUCACACAAACCGG

Variants of: B1
Assay: reverse-splicing fitness (ratio to wild type); higher = more active; in vitro selection; Mg2+ level not given
How it was run: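 An in vitro group I ribozyme library with randomized positions was T7-transcribed and gel-purified. In triplicate, 10 pmol RNA in EPPS pH 7.5 was reacted with 50 pmoles of a 30-nt RNA substrate for 1 h at 37 °C across several added MgCl2 levels (1–48 mM), then stopped with EDTA. Products were reverse transcribed from a substrate-complementary primer, PCR-amplified and sequenced (HiSeq 4000). Fitness is a variant's read proportion after selection over that before, normalised to wild type.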

Variant | reverse-splicing fitness
GUGCCUUGCGCCGGGAAACCACGCAAGGGAUGGUGUCAAAUUCGGCGAAACCUAAGCGCCCGCCCGGGCGUAUGGCAACGCUGAGCCAAGCUUCGGCGCCUGCGCCGAUGGAGGUGUAGGGACUAGACGGCACCCACCUAAGGCAAACGUUAUGGUGAAGGCAUAGUCGAGGGAGUGGCGAAAGUCACACAAACCGG [C82U A111G A120G C150U C169G] | 0.0104
GUGCCUUGCGCCGGGAAACCACGCAAGGGAUGGUGUCAAAUUCGGCGAAACCUAAGCGCCCGCCCGGGCGUAUGGCAACGCUGAGCCAAGCUUCGGCGCCUGCGCCGAUGGAGGUGUAGGGACUAGACGGCACCCACCUAAGGCAAACGCUAUGGUGAAGGCAUAGUCUAGGGAGAGGCGAAAGUCACACAAACCGG [C82U A111G A120G C169U U176A] | 0.023
GUGCCUUGCGCCGGGAAACCACGCAAGGGAUGGUGUCAAAUUCGGCGAAACCUAAGCGCCCGCCCGGGCGUAUGGCAACGCUGAGCCAAGCUUCGGCGCCUGCGCCGAUGGAGGUGUAGGGACUAGACGGCACCCACCUAAGGCAAACGCUAUGGUGAAGGCAUAGUCUAGGGAGCGGCGAAAGUCACACAAACCGG [C82U A111G A120G C169U U176C] | 0.0174
GUGCCUUGCGCCGGGAAACCACGCAAGGGAUGGUGUCAAAUUCGGCGAAACCUAAGCGCCCGCCCGGGCGUAUGGCAACGCUGAGCCAAGCUUCGGCGCCUGCGCCGAUGGAGGUGUAGGGACUAGACGGCACCCACCUAAGGCAAACGCUAUGGUGAAGGCAUAGUCUAGGGAGGGGCGAAAGUCACACAAACCGG [C82U A111G A120G C169U U176G] | 0.00533
GUGCCUUGCGCCGGGAAACCACGCAAGGGAUGGUGUCAAAUUCGGCGAAACCUAAGCGCCCGCCCGGGCGUAUGGCAACGCUGAGCCAAGCUUCGGCGCCUGCGCCGAUGGAGGUGUAGGGACUAGACGGCACCCACCUAAGGCAAACGUUAUGGUGAAGGCAUAGUCCAGGGAGCGGCGAAAGUCACACAAACCGG [C82U A111G A120G C150U U176C] | 0.0156
GUGCCUUGCGCCGGGAAACCACGCAAGGGAUGGUGUCAAAUUCGGCGAAACCUAAGCGCCCGCCCGGGCGUAUGGCAACGCUGAGCCAAGCUUCGGCGCCUGCGCCGAUGGAGGUGUAGGGACUAGACGGCACCCACCUAAGGCAAACGUUAUGGUGAAGGCAUAGUCCAGGGAGAGGCGAAAGUCACACAAACCGG [C82U A111G A120G C150U U176A] | 0.00985
GUGCCUUGCGCCGGGAAACCACGCAAGGGAUGGUGUCAAAUUCGGCGAAACCUAAGCGCCCGCCCGGGCGUAUGGCAACGCUGAGCCAAGCUUCGGCGCCUGCGCCGAUGGAGGUGUAGGGACUAGACGGCACCCACCUAAGGCAAACGUUAUGGUGAAGGCAUAGUCCAGGGAGGGGCGAAAGUCACACAAACCGG [C82U A111G A120G C150U U176G] | 0.00506
GUGCCUUGCGCCGGGAAACCACGCAAGGGAUGGUGUCAAAUUCGGCGAAACCUAAGCGCCCGCCCGGGCGUAUGGCAACGCUGAGCCAAGCUUCGGCGCCUGCGCCGAUGGAGGUGUAGGGACUAGACGGCACCCACCUAAGGCAAACGCUAUGGUGAAGGCAUAGUCCAGGGAGAGGCGAAAGUCACACAAACCGG [C82U A111G A120G U176A] | 0.013
GUGCCUUGCGCCGGGAAACCACGCAAGGGAUGGUGUCAAAUUCGGCGAAACCUAAGCGCCCGCCCGGGCGUAUGGCAACGCUGAGCCAAGCUUCGGCGCCUGCGCCGAUGGAGGUGUAGGGACUAGACGGCACCCACCUAAGGCAAACGCUAUGGUGAAGGCAUAGUCCAGGGAGGGGCGAAAGUCACACAAACCGG [C82U A111G A120G U176G] | 0.00466
GUGCCUUGCGCCGGGAAACCACGCAAGGGAUGGUGUCAAAUUCGGCGAAACCUAAGCGCCCGCCCGGGCGUAUGGCAACGCUGAGCCAAGCUUCGGCGCCUGCGCCGAUGGAGGUGUAGGGACUAGACGGCACCCACCUAAGGCAAACGCUAUGGUGAAGGCAUAGUCCAGGGAGCGGCGAAAGUCACACAAACCGG [C82U A111G A120G U176C] | 0.0144
GUGCCUUGCGCCGGGAAACCACGCAAGGGAUGGUGUCAAAUUCGGCGAAACCUAAGCGCCCGCCCGGGCGUAUGGCAACGCUGAGCCAAGCUUCGGCGCCUGCGCCGAUGGAGGUGUAGUGACUAGACGGCACCCACCUAAGGCCAACGAUAUGGUGAAGGCAUAGUCAAGGGAGUGGCGAAAGUCACACAAACCGG [C82U A111G A120U A145C C150A C169A] | 0.00199
GUGCCUUGCGCCGGGAAACCACGCAAGGGAUGGUGUCAAAUUCGGCGAAACCUAAGCGCCCGCCCGGGCGUAUGGCAACGCUGAGCCAAGCUUCGGCGCCUGCGCCGAUGGAGGUGUAGUGACUAGACGGCACCCACCUAAGGCAAACGCUAUGGUGAAGGCAUAGUCCAGGGAGUGGCGAAAGUCACACAAACCGG [C82U A111G A120U] | 0.0431
GUGCCUUGCGCCGGGAAACCACGCAAGGGAUGGUGUCAAAUUCGGCGAAACCUAAGCGCCCGCCCGGGCGUAUGGCAACGCUGAGCCAAGCUUCGGCGCCUGCGCCGAUGGAGGUGUAGGGACUAGACGGCACCCACCUAAGGCAAACGCUAUGGUGAAGGCAUAGUCAAGGGAGGGGCGAAAGUCACACAAACCGG [C82U A111G A120G C169A U176G] | 0.00398
GUGCCUUGCGCCGGGAAACCACGCAAGGGAUGGUGUCAAAUUCGGCGAAACCUAAGCGCCCGCCCGGGCGUAUGGCAACGCUGAGCCAAGCUUCGGCGCCUGCGCCGAUGGAGGUGUAGGGACUAGACGGCACCCACCUAAGGCAAACGCUAUGGUGAAGGCAUAGUCAAGGGAGCGGCGAAAGUCACACAAACCGG [C82U A111G A120G C169A U176C] | 0.023
GUGCCUUGCGCCGGGAAACCACGCAAGGGAUGGUGUCAAAUUCGGCGAAACCUAAGCGCCCGCCCGGGCGUAUGGCAACGCUGAGCCAAGCUUCGGCGCCUGCGCCGAUGGAGGUGUAGGGACUAGACGGCACCCACCUAAGGCAAACGCUAUGGUGAAGGCAUAGUCAAGGGAGAGGCGAAAGUCACACAAACCGG [C82U A111G A120G C169A U176A] | 0.0167
